From PMC8184831

Test system: SOX2 (hSOX2) (human)
Test: EMSA
Details: Plasmid EMSA: 60 mM KCl, 12 mM Hepes pH 7.9, 2 mM MgCl2, 1 mM DTT, 0.12 mM EDTA, 12% glycerol, 0.01% NP40, 10 ng/uL DNA, 15 min 30 C; 0.8% agarose 0.5x TBE. …

Substance: SOX2 non-specific-site EMSA probe
- binding signal (fold higher Kd than specific site): 30

Substance: SOX2 specific-site EMSA probe
- Kd: 2 nM
